Experimental findings from the nanobody polyreactivity screen of Harvey et al. (2022) are described below.

This data set in a line: yeast display, Sf9 membrane polyspecificity reagent, FACS + sequencing; frameworks hold sequencing errors. In outline:
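Nanobodies came from a synthetic yeast display library in Saccharomyces cerevisiae BJ5465, induced with galactose for 36–48 hours and stained for 1 hour at 4 °C with 10% biotinylated, detergent-solubilized Sf9 membrane reagent. Cells were enriched on streptavidin microbeads and then FACS-sorted, with low and high (top ~1%) gates set on anti-HA fluorescence for expression and streptavidin fluorescence for reagent binding. Each polyreactivity label reflects the gate a clone came from. Genes were amplified by colony PCR, sequenced by MiSeq 2 × 250 and filtered by CDR length.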
Consider “QVQLVESGGGLVQAGGSLRLSCAASGSIFPLYAMGWYRQAPGKERELVAAISWSGGSTYYADSVKGRFTISRDNAKNTVYLKMNSLKPEDTAVYYCATLYISTSGYIYEGDYWGQGTQVTVSS”, for which the “polyreactivity (PSR sort gate)” value is listed as “high polyreactivity”.
The result for “QVQLVESGGGLVQAGGSLRLSCAASGSIFPPNAMGWDRQAPGKERELVAGISQSGGSTYYAESVKGRFTISRDNAKNTVYLQMNSLKPEDTAVYYCARSFYSGRRYYYWGQGTQVTVSS” reads “high polyreactivity”.
With “QVQLVESGGGLVQAGGSLRLSCAASGSIFPPYAMGWYRPAPGKERELVAAINSGGSTNYADSVKGRFTISRDNAKNTVYLQMNSLIPEDTAVYYCNVDESYDWRTRKYDSWGQVTQVTVSS” the entry was “low polyreactivity”.
Consider “QVQLVESGGGLVQAGGSLRLSCAASGSIFPPYAMGWYRQAPGKERELVAAIRRGSSTYYADSVKGRFTISRDNAKNTVYLQMNSLKPEDTAVYYCAARGRYRIGPGRYGKRYDYWGQGTQVTVSS”, for which the “polyreactivity (PSR sort gate)” value is reported as “high polyreactivity”.
“QVQLVESGGGLVQAGGSLRLSCAASGSIFPPYAMGWYRQAPGKERELVATITIRGGSTYYADSVKGRFTISRDNAKNTVYLQMNSLKPEDTAVYYCAADYTKYYRRYYYWGQGTQVTVSS”: the “polyreactivity (PSR sort gate)” value is on record as “high polyreactivity”.
The result for “QVQLVESGGGLVQAGGSLRLSCAASGSIFPQYAMGWYRQAPGKERELVAAISSSGGRTYYADSVKGRFTISRDNAKNTVYLQMNSLKPEDTAVYYCAADGSYAIGGYGYWGQGTQVTVSS” reads “high polyreactivity”; that for “QVQLVESGGGLVQAGGSLRLSCAASGSIFPQYAMGWYRQAPGKERELVAAITRSGGGTHYADSVKGRFTISRDYAKNTVYFQMNSLKPEDTAVYYCAKAGYRSEFEYWGQGTQVTVSS”, “low polyreactivity”.
With “QVQLVESGGGLVQAGGSLRLSCAASGSIFPRNAMGWYRQAPGKERELVAGISSGGSTNYADSVKGRFTISRDNAKNTVYLQMNSLKPEDTAVYYCAARQWIRNLGFGYSIYYYWGLGTQVTVSS” the entry was “high polyreactivity”.
On to “QVQLVESGGGLVQAGGSLRLSCAASGSIFPRYAMGWYRQAPGKERELVAAITGSGSSTYYADSVKGRFTISRDNAKNTVYLQMNSLKPEDTAVYYCAARKARPPCPHPFDYYWGEGTQVTVSS”, for which the “polyreactivity (PSR sort gate)” value is listed as “low polyreactivity”.
The result for “QVQLVESGGGLVQAGGSLRLSCAASGSIFPRYAMGWYRQAPGKERELVAAITNGGSTDYADSVKGRFTISRDNAKKTVYLLMNSLKPEDTAGYYCAADLAVGIYPEDGDYWGQGTKVTVSS” reads “low polyreactivity”; that for “QVQLVESGGGLVQAGGSLRLSCAASGSIFPRYFMGWYRQAPGKERELVAAISQSGGSTYYADSVKGRFTISRDNAKNTVYLQMNSLKPEDTAVYYCAAEVRGWRVDYYYWGQGTQVTVSS”, “high polyreactivity”; that for “QVQLVESGGGLVQAGGSLRLSCAASGSIFPRYVMGWYRQAPGTARELVAAISGSGGSTYYADSVKGRFTISRDNAKNTVYLQMNSLKPEDTAVYYCNKLRRRVNRDIDDYWGQGTQVTVSS”, “high polyreactivity”.
The result for “QVQLVESGGGLVQAGGSLRLSCAASGSIFPSNAMGWYRQAPGKERELVAAINRDGISNYADSVKGRFTISRDNAKNTVYLQMNSLKPEDTAVYYCAAEFAWQWWEYGYWGQGTQVTVSS” reads “low polyreactivity”.
With “QVQLVESGGGLVQAGGSLRLSCAASGSIFPSYAMGWYRPAPGIERELVAAINWDGGSTFYADSVKGRFTISRDNAKNTVYLQMNSLKPEDTAVYYCAKYTYQEIRNVGRRGHYYWGQGTQVTVSS” the entry was “low polyreactivity”.
Consider “QVQLVESGGGLVQAGGSLRLSCAASGSIFPSYAMGWYRQAPGKERELVATISGSGTRTYYADSVKGRFTISRDNAKNTVYLQMNILKPEDTAVYYCAADPWLGTGRYDYWGQGTQVTVSS”, for which the “polyreactivity (PSR sort gate)” value is listed as “low polyreactivity”.
In the case of “QVQLVESGGGLVQAGGSLRLSCAASGSIFPTYAMGCYRQAPGKERELVAAIRSGSNTYYADSVKGRFTISRDNAKNTVYLQMNSLKPEDTAVYYCNVGPQRKYPGRRTVPFGYWGQGTQVTVSS”, the “polyreactivity (PSR sort gate)” value is listed as “low polyreactivity”.
The result for “QVQLVESGGGLVQAGGSLRLSCAASGSIFPVNVMGWYRQAPGKERELVADITSTGTYYADSVKGRFTISRDNAKNTVYLQMNSLKPEDTAVYYCAKAGGSWYRRYYYWGQGTQVTVSS” reads “high polyreactivity”; that for “QVQLVESGGGLVQAGGSLRLSCAASGSIFPVYAMGWYRPAPGKERELVAAISLRAGNTYYADSVKGRFTISRDNAKNTVYLQMNSLKPEDTAVYDCAVELFRSTTIYDYWGQGTLVTVSS”, “high polyreactivity”.
With “QVQLVESGGGLVQAGGSLRLSCAASGSIFPVYAMGWYRQAPGKERELVAAISWIGGGTYYADSVKGRFTISRDNAKNTVYLQMNSLKPEDTAVYYCAAVPYTSEYDYWGQGTKVTVSS” the entry was “high polyreactivity”; with “QVQLVESGGGLVQAGGSLRLSCAASGSIFPVYAMGWYRQAPGKERELVATIRSGGARTYYADSVKGRFTISRDNAKNTVYLQMNSLKPEDTAVYYCATRWPHYGGYYYWGQGTQVTVSS”, “high polyreactivity”.
With “QVQLVESGGGLVQAGGSLRLSCAASGSIFPVYAMGWYRQAPGKQRELVAAITTAGRTYYADSVKGRFTISRDNAKNTVYLQMNSLKPEDTAVYYCNARSRKGLTVDGGYWGQGTQVTVSS”, the “polyreactivity (PSR sort gate)” value is “high polyreactivity”.
The result for “QVQLVESGGGLVQAGGSLRLSCAASGSIFPWYAMGWYRQAPGKEKELVAAIRWRDGRTYYADSVKGRFTISRDNAKNTVYLQMNSLKPEDTAVYYCAAVSTDKYVYGVDVYLYDYWGQGTQVTVSS” reads “low polyreactivity”; that for “QVQLVESGGGLVQAGGSLRLSCAASGSIFPWYAMGWYRQAPGNERELVAAINQIGGGGTNYADSVKGRFTISRDNAKNTVYLQMNSLKPEDTAVYYCAADHVWIRAYRFTKGDDYWGQGTQVTVSS”, “low polyreactivity”; that for “QVQLVESGGGLVQAGGSLRLSCAASGSIFPYNAMGWYRPAPGKERELVATISSGGSTNYADSVKGRFTISRDNAMNTVYLQMNIMKPEDTAVYYCAKETIGQDPVSGAWARHEYDYWGQGTQVTVSS”, “low polyreactivity”.
The result for “QVQLVESGGGLVQAGGSLRLSCAASGSIFPYNAMGWYRQAPGKERELVAAISKRGGSTYYADSVKGRFTISRDNAKNTVYLQMNSLKPEDTAVYYCAARYPPYRSWYSYDYWGQGTQVTVSS” reads “low polyreactivity”; that for “QVQLVESGGGLVQAGGSLRLSCAASGSIFPYNVMGWYRQAPGKERELVAAISTRGGRTYYADSVKGRVTISRDNAKNTVYLQMNSLKPEDTAVYDCATAGGPYSASGYYGGQGTQVTVSS”, “high polyreactivity”; that for “QVQLVESGGGLVQAGGSLRLSCAASGSIFPYNVMGWYRQTPGKERELVADIRSDGSTTYADSVKGRFTISRDNAKNTVYLQMNSLKPEDTAVYDCAAVWTYLYSYSLWLEYDYWGQGTQVTVSS”, “low polyreactivity”.
“QVQLVESGGGLVQAGGSLRLSCAASGSIFPYYAMGWNRQAPGKERELVATITSRGGSTYYADSVKGRFTISRDNAKNTVYLQMNSLKPEDTAVYYCAKEYRYYRRRYDYWGQGTQVTVSS”: the “polyreactivity (PSR sort gate)” value is recorded as “high polyreactivity”.
With “QVQLVESGGGLVQAGGSLRLSCAASGSIFPYYAMGWSRQAPGKERELVASINQSDGTTYYADSVKGRFTISRDNAKNTVYLQMNSLKPEDTAVYYCAAAYFYWRVDKYYYWGQGTQVTVSS” the entry was “low polyreactivity”; with “QVQLVESGGGLVQAGGSLRLSCAASGSIFPYYAMGWYRQAPGKEREFVAAITISGGSTYYADSVKGRFTISRDNAKNTVYLQMNSLKPEDTAVYYCAVDRGISVGYTRFDYWGKGTQVTVSS”, “low polyreactivity”.
The result for “QVQLVESGGGLVQAGGSLRLSCAASGSIFPYYAMGWYRQAPGKEREFVASISSVTSTYADSVKGRFTISRDNAKNTVYLQMNSLKPEDTAVYYCAADRAYSWYSVSRYNYWGQGTQVTVSS” reads “low polyreactivity”; that for “QVQLVESGGGLVQAGGSLRLSCAASGSIFPYYAMGWYRQAPGKVRELVATISSGGSTKYADSVKGRFTISRDNAKNTVYLQMNSLKPEDTAVYYCAADWYLGPYSWYTEKYNYCGQGTQVTVSS”, “high polyreactivity”; that for “QVQLVESGGGLVQAGGSLRLSCAASGSIFPYYTMGWYRQAPGKERELVAGISSGGSTNYADSVKGRFTISRDNAKNTVYLQMNSLKPEDTAVYYCNARRYWLRYDYWGQGTQVTVSS”, “low polyreactivity”.
With “QVQLVESGGGLVQAGGSLRLSCAASGSIFPYYVMGWYRQAPGKERYADSVKGRFTISRDNAKNTVYLQMNSLKPVDTAVYYSAAKVPEPPSLDESDYWGQGSQVTVSS” the entry was “low polyreactivity”; with “QVQLVESGGGLVQAGGSLRLSCAASGSIFQANAMGWYRQAPGKERELLAAISSRGGSTYYADSVKGRFTISRDNAKNTVYLQMNSLKPGDTAVYYCAADSIQYTARPYDYWGQGTQVTVSS”, “low polyreactivity”; with “QVQLVESGGGLVQAGGSLRLSCAASGSIFQDNTMGWYRQAPGKESELVAAISWSATSTYYADSVKGRFTISRDNAKNTVYLQMNSLNPEDTAVYYCAARYWLFPPGYNYWGQGTQVNVSS”, “high polyreactivity”.
On to “QVQLVESGGGLVQAGGSLRLSCAASGSIFQGNAMGWYRQAPGKERELVAAISQSGGRTYYADSVKGRFTITRDNAKNTVYLQMNSLKPEDTAVYYCNTTKVYRLRFDYWGQGTQVTVSS”, for which the “polyreactivity (PSR sort gate)” value is listed as “low polyreactivity”.
With “QVQLVESGGGLVQAGGSLRLSCAASGSIFQGYAMGWYRQAPGKERELVAAITASGGSTYYADSVKGRFTISRDNAMNTVYLQMNSLKPEDTAVYYCAAVRKSVGVKYDFWGQGTQVTVSS” the entry was “high polyreactivity”.
With “QVQLVESGGGLVQAGGSLRLSCAASGSIFQGYAMGWYRQAPGKERELVAVITSSGGSTYYADSVKGRFTISRDNAKNTVYLQMNSLKPEDTAVYYCAVGLLVYSRTYIGQAFFRYNYWGQGTQVTVSS” the entry was “high polyreactivity”; with “QVQLVESGGGLVQAGGSLRLSCAASGSIFQIYAMGWYRQAPGKERELVAAINSGGITKYADSVKGRFTISRDNAKNTVYLQMNSLKPEDTAVYYCAKRYGWPYGRFDYWGQGTQVTVSS”, “low polyreactivity”; with “QVQLVESGGGLVQAGGSLRLSCAASGSIFQKYAMGWYRQAPGKDRELVAAISWDGGRTYYADSVKGRFTISRDNAKNTVYLQMNSLKPEDTAVYYCYWYDYWGHGTQVTVSS”, “high polyreactivity”.
